assay: yeast display, Sf9 membrane polyspecificity reagent, FACS + sequencing; frameworks hold sequencing errors
In short: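 After 36–48 hours of galactose induction, yeast (Saccharomyces cerevisiae BJ5465) displaying a synthetic nanobody library were stained at 4 °C for 1 hour with 10% biotinylated, detergent-solubilized Sf9 membrane reagent. Streptavidin microbeads enriched the stained cells before FACS sorting into low and high (top ~1%) gates on anti-HA and streptavidin fluorescence. Each clone's polyreactivity label reflects its gate of origin.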

Row | Sequence | polyreactivity (PSR sort gate)
1 | QVQLVESGGGLVQAGGSLSLSCAASGRTFIRNAMGWYRQAPGKERELVAAINSGGITNYADSVKGRFTISRDNAKNTVYLQMNSLKPEDTAVYYCNARQVLFGLYLRAYPFEYWGQGTQVTVSS | low polyreactivity
2 | QVQLVESGGGLVQAGGSLSLSCAASGRTFKPYAMGWYRQAPGKERELVAVITSNGSSTYYADSVKGRFTISRDNAKNTVYLQMNSLKPEDTAVYYCATKLTYTLTSGAYAYDYWGQGTQVTVSS | low polyreactivity
3 | QVQLVESGGGLVQAGGSLSLSCAASGRTFYTNAMGSSRQAPGKERELVAAISLRDVNTYYADSVKGRFTISRDNAKNTVYLQMNSLKPEDTAVYYCAARSRRRFDWGQGTQVTVSS | high polyreactivity
4 | QVQLVESGGGLVQAGGSLSLSCAASGSIFAYKAMGWYRQAPGKEREFVAVITRSDDSTYADSVKGRFTISRDNAKNNVYLQMNSLKPEDTAVYYCAVVANYVYSKYDYWGQGTQVTVSS | low polyreactivity
5 | QVQLVESGGGLVQAGGSLSLSCAASGSIFGIYAMGWYRQAAGKDRELVATINSRGTTNYADSVKGRFTISRYNAKNTVYLQMNSLKPEDTAVYYCAARFSTYRGKLKGYEYWGQGTQVTVSS | high polyreactivity
6 | QVQLVESGGGLVQAGGSLSLSCAASGSIFGSYAMGWYRKAPGKERELVAAITGSGVSTYYADSVKGRFTISRDNAKYTVYLQMNSLKPEDTAVYYCAAKRYYARSAYGSYFIVGYWGQGTQVTVSS | high polyreactivity
7 | QVQLVESGGGLVQAGGSLSLSCAASGSIFLRNAMGWYRQAPGKERELVAAITWDSGDTYYADSVKGRFTISRDHAKNTVYLQMNSLKPEDTAVYYCNTLGLSSDWGQGTQVTVSS | low polyreactivity
8 | QVQLVESGGGLVQAGGSLSLSCAASGSIFLRNAMGWYRQAPGKETEYVASITWNGASTSYADSVMGRFTISRDNAKNTVYLQMNSLKPEDTAVYYCAARDSQYGGPGMDYWGQGTQVTVSS | low polyreactivity
9 | QVQLVESGGGLVQAGGSLSLSCAASGSIFNPYGKGWYRQAPGKERELVAAITSSGGDTYYADSVKGRFTISRDNAKNTVYLQMNSLKPEDTAVYYCAATGLPGYYAYDYWGHGTQVTVSS | low polyreactivity
10 | QVQLVESGGGLVQAGGSLSLSCAASGSIFNRYTMGWYRQAPGKERELVADISKSGTRTYYADSVKGRFTISRDNAKNTVYLQMNSQKPEDTSVYYCAKSSVAVYQTRYDYWGQGTQVNVSS | high polyreactivity
11 | QVQLVESGGGLVQAGGSLSLSCAASGSIFPGNAMGWYRQAPGKERELVAVIDFSGASTYYADSVKGRFTISRDNAKNTVYLQMNSLKPEDTADYWGQGTQVTVSS | low polyreactivity
12 | QVQLVESGGGLVQAGGSLSLSCAASGSIFQPYVMGWYRQAPGKEREFVATIRYSGGITYADSVKGRFTISRDNSKNTVYLQMNSLKPVVTAVYYCACYCYCYWGQGTQVNVSS | low polyreactivity
13 | QVQLVESGGGLVQAGGSLSLSCAASGSIFRHNVMGWYIPAPGKERELVAAISGGGGRTYYADSVKGRFTISRDNAKNTDYLQMKSLKPEDTAVYYCYAYVGLSEGDYWGQGTHVTVSS | high polyreactivity
14 | QVQLVESGGGLVQAGGSLSLSCAASGSIFRYYAMGWYRQAPGKERELVAAITSGGRTNYADSVKGRFTISRDNAKNTVYLQMNSLKREDTAVYYCNKCYNAVWRYRGDYWGQGTQVTVSS | high polyreactivity
15 | QVQLVESGGGLVQAGGSLSLSCAASGSIFVIYTMGWYRPAPGKERELVAGITWSTGNTYYADSVKGRFTISRDNAKNTFYLQMNSLKPEDTAVYSCAARTTSRWRSGAYYYWGQGTQVTVSS | high polyreactivity
16 | QVQLVESGGGLVQAGGSLSLSCAASGSIFVYKAMGWYRPAHGKERELVAAISSSGGSTYYADSVKGRFTISRDNAKNTVYLQMNSLKPEDTAVYYCAAEAVRKVPSYYSYAYYYWGQGTQVTVSS | high polyreactivity
17 | QVQLVESGGGLVQAGGSLSLSCAASGSIFYGNAMGWYRQEPGKERELVAAITYGTSSTYYADSVKGRFTISRDKAKNTVYLQMNSLKPEDTAVYYCAADAKSHPTTRNYVGSPMDYWGQGTQVTVSS | low polyreactivity
18 | QVQLVESGGGLVQAGGSLSLSCAASGSIIARYAMGWYRQAPGKERELVAAITWSATSTYYADSVKGRFTISRDNAKNTVYLQMTSLKPEDTAVYYCNAGASYFLVISQSRRDYWGQGTQVTVSS | low polyreactivity
19 | QVQLVESGGGLVQAGGSLSLSCAASGSTFDRYAMGWYRQAPGKERELVAAISHSGGRTYYADSVKGRFTISRDNAKNTVYLQMNSLKPEDTAVFYCAAKSRSGTEAAYGYWGQGTQVTVSS | low polyreactivity
20 | QVQLVESGGGLVQAGGSLSLSCAASGSTFFSYAMGWYRQAPGKEREFVAAITYSSGRTYYADSVKGRFTISRDNAKNTVYLQMNSLKPEDTAVYYCATTGFVWGRGYDYWGQGTQVTVSS | high polyreactivity
21 | QVQLVESGGGLVQAGGSLSLSCAASGSTFGDYAMGWYRQAPGKERELVAAITSSGGRTFYADSVKGRFTISRDNAKNTVYLQMNSLKPEDHAVYYCAAEFTDPPSEYEYWGQGTQVTVSS | low polyreactivity
22 | QVQLVESGGGLVQAGGSLSLSCAASGSTFGSNAKGWYRQAPGKARELVAAISSDGSTNYADSVKGRFTISRDNAKNTVYLQMNSLKPEDTAVYYCAADDRHRYNIYDYWGQGTQVTLSS | low polyreactivity

Row | Sequence | polyreactivity (PSR sort gate)
23 | QVQLVESGGGLVQAGGSLSLSCAASGSTFRGYAMGWDRQAPGKERELVADSTYYADSVKGRFTISRDNAKNTVYFQMNCLKPEDTAVYYCNADIAGWGSQDGTDDYWGLGTQVTVSS | high polyreactivity
24 | QVQLVESGGGLVQAGGSLSLSCAASGSTFSRYGMGGYRQAPGKERELVAAISYSGGGTYYADSVKGRFTISRDNAKNTVYLQMNSQKREDNAVYYCNVEYPKRANLSDYWGQGTQVTVSS | high polyreactivity
25 | QVQLVESGGGLVQAGGSLSLSCAASGSTFSVYAMGWYRQAPGKERELVAAITRSGGSTYYADSVKGRFTISRDNAKNTVYLQMNSLIAEDSAVYYCNAEWYYVWFITTYWLDQYGYWGQGTQVTVSS | low polyreactivity
26 | QVQLVESGGGLVQAGGSLSLSCAASGSTFVPNLMGWYRQAPGKERELVAAITWSGGTTTFYADSVKGRFTISRDNAKNTVYLQMNSLKPEDTAVYYCAVTRGGQYYPYYYWGQGTQVTVSS | low polyreactivity
27 | QVQLVESGGGLVQAGGSLSLSCAASGSTFVPYAMGWYRPAPGKERELVAAISSTGGSTYYADSVKGRFTISRDNAKNTVYLQMNSLKAEDTAVYYCNALAKIRYGQINKGYYWGQGTQVTVSS | high polyreactivity
28 | QVQLVESGGGLVQAGGSLSLSCAASGSTFVVNAMGWYRQAPGKERELVAAITQSGGSTFYADSVKGRFPISRDNAKNTVYLQMNSLKPEDTAVYYWGQGTQVTVSS | low polyreactivity
29 | QVQLVESGGGLVQAGGSLSLSCAASGSTFYANAMGWYRQAPGKEREFVAAISYNGGSTYYADSVKGRFTISRDNAKNTVYFQMNSLKPEDTAVYYCNVDYDYPYYEVDYWGQGTQVTVSS | low polyreactivity
30 | QVQLVESGGGLVQAGGSLSLSCAASGYIFAVYAMGWYRQAPGKEREFVAVITWRGGSTYYADSVKGRFTISRDNAKNTVYLQMNSLKPEDTAVYYCAARWHFLTSSRFDYWGQGTQVTVSS | high polyreactivity
31 | QVQLVESGGGLVQAGGSLSLSCAASGYIFRYYAMGSYRQAPGKEREFGAAISWRGGSTYYADSVKGRFTISRDNAKNTVYLQMNRLKPEDTEFYYCAAGYFSFFGHYNAGLDYWGQGTQVTVSS | high polyreactivity
32 | QVQLVESGGGLVQAGGSLSLSCAASGYNFYKNAMGWYRPAPGKERELVAAISTRGGSTYYADSVKGRFTISRDNAQITVYLPMNSLKPEDTAVYYCAASQHRRDWGQGTQVTVSS | high polyreactivity
33 | QVQLVESGGGLVQAGGSLSLSCAASVRIFVYNVMGWYRQAPGKERELVAAISWGTGSTYADSVKGRFTISRDNAKNTVYLQMNSLKPEDTAVYYCAAAADYYYDHDYWGQGTQVTVSS | low polyreactivity
34 | QVQLVESGGGLVQAGGSLSLSCAAYGFTFWKYAMGRSRQAPGKESELVAAISVSGGRTYYADSVKGRFTISGDNAKNTVYLQINSLKPEDTASYYVATSFRNGWGSYYYWGQGTQVTVSS | high polyreactivity
35 | QVQLVESGGGLVQAGGSLSLSCADSGSTFPKYAMGWYRQAPGKERELVASISVTTGSTYYADTVKGRFTISRDNAKNTVYLHMNSLKPVDTAVYYCAKRTYSRKLRGAYNYWGQGTQVTVSS | high polyreactivity
36 | QVQLVESGGGLVQAGGSLSLSCDASGSIFYYYAMGWYRQAPGKEREMVASITSSGGTTSYADSVKGRFTISRDNAKNTVYLQMNSLKPEDTAVYYCNAQVYRYRICYDFWGEGTQVTVSS | low polyreactivity
37 | QVQLVESGGGLVQAGGSLSLSCDASGSIIQGYAMGWYRQAPGKERELVAAISWSGTSTYYADSVKGRFTISRDNAKNTVYLQMNSLKPEDTEVYYCATDYYYYTAEYEYWGQGTQVTVSS | high polyreactivity
38 | QVQLVESGGGLVQAGGSLSLSCPASGFTFPPYTMGWSRQAPGKEREFVATITKSGGSTYYADSVKGRFTISRDNAKNTVYLQMNSLKPEDTAVYYCNVVWQYSTYVRYNYWGQGTQVTVSS | low polyreactivity
39 | QVQLVESGGGLVQAGGSLSLSSSASGRTFKGNAMGWYIQAPGKERELVAVITGSGGSTYYADSVKGRFTISRDNAKNTVYLQMNSLKPEDTAVYYCNKKLQRRSWYDYWGQGTQVTVSS | low polyreactivity
40 | QVQLVESGGGLVQAGGSNRLSCAASGLTSFRYTMGWYRQAPGKDRELVAGISGSRGRTYYADSVKGRFTISRDNAKNTVYLQMNCMKAVDTAVYDCAAGWYTSHAKGKGGYWGQGTQVTVSS | high polyreactivity
41 | QVQLVESGGGLVQAGGSNRLSCAASGYIFDIYAMGCYRQAPVKERELVAVITRSGGGTYYADSVKGRFTISRDNAKNSVYLQMNSLKPEDTAVYYCAAESYVYGGSDYDYWGQGTQVTVSS | low polyreactivity
42 | QVQLVESGGGLVQAGGSRLSCAASGLIFIWYTMGWYRQAPGKERELVAAIDSSGGNTYYADSVKGRFTISRDNAKNTVYLQMNSLKPEDTAVYYCAKDVGHGAGNLMGYWGQGTQVTVSS | low polyreactivity
43 | QVQLVESGGGLVQAGGSRRLSCAASGCILRDNAMGWYRQAPGKEREVVAAISYSGDLTYYADSVKGRFTISRDNAKNTVYLQMNSLIPEDTAVYDCAALYPKVRGYRSDDLWGQGTQVTVSS | high polyreactivity
